In doi:10.1101/2021.01.21.427698:

Target: T1, human SEPT2 with a TEV-cleavable N-terminal His6-tag (human), Q15019
T1 chain: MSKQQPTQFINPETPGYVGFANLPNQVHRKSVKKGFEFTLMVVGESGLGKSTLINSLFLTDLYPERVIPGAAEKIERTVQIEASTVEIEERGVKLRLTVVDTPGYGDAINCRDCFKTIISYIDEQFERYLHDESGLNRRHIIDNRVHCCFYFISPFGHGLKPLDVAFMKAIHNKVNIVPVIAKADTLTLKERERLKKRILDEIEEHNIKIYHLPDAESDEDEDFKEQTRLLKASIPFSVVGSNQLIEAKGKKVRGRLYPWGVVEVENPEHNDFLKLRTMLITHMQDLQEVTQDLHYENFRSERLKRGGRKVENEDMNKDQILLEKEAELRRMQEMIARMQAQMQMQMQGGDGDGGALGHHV
Details: remark: other sources report otherwise

- stoichiometry N: 1
B1: full-length human SEPT7 (untagged, as in the octamers), Q16181 1-437 (natural protein)
chain: MSVSARSAAAEERSVNSSTMVAQQKNLEGYVGFANLPNQVYRKSVKRGFEFTLMVVGESGLGKSTLINSLFLTDLYSPEYPGPSHRIKKTVQVEQSKVLIKEGGVQLLLTIVDTPGFGDAVDNSNCWQPVIDYIDSKFEDYLNAESRVNRRQMPDNRVQCCLYFIAPSGHGLKPLDIEFMKRLHEKVNIIPLIAKADTLTPEECQQFKKQIMKEIQEHKIKIYEFPETDDEEENKLVKKIKDRLPLAVVGSNTIIEVNGKRVRGRQYPWGVAEVENGEHCDFTILRNMLIRTHMQDLKDVTNNVHYENYRSRKLAAVTYNGVDNNKNKGQLTKSPLAQMEEERREHVAKMKKMEMEMEQVFEMKVKEKVQKLKDSEAELQRRHEQMKKNLEAQHKELEEKRRQFEDEKANWEAQQRILEQQNSSRTLEKNKKKGKIF
